These are literature values, as cited in paper PMC8693730.

Like-named read-outs stand apart in the source and are kept apart here.

As usually defined, the Kd is the free concentration of one partner at which half of the binding sites on the other are occupied at equilibrium, for simple one-to-one binding.

Data set [1] has as its target RAP74 (Homo sapiens) (UniProt P35269).
The target is the same in data set [2]. The source holds these as a separate data set.

UniProt P35269, sequence (P35269 2-517): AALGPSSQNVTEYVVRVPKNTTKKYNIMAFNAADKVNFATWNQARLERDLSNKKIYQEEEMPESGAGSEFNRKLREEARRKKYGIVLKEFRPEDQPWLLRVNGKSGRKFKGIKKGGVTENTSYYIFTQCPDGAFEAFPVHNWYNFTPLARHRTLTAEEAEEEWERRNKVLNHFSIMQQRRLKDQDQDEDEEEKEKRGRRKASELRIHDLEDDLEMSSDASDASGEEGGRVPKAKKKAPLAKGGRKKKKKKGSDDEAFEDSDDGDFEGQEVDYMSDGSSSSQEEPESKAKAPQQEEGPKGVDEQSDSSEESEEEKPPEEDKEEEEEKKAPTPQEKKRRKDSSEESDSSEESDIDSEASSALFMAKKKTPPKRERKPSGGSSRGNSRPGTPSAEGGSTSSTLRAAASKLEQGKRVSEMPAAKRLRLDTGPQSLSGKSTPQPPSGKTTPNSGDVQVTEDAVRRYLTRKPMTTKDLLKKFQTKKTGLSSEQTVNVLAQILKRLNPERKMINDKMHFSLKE

Regarding “androgen receptor NTD (from UniProt P10275)”, the Kd with RAP74 (Homo sapiens) [1] is 702 µM; with RAP74 (Homo sapiens) [2], 1750 µM.
